Data: publication PMC2607524, “The role of conserved residues of chagasin in the inhibition of cysteine peptidases” (Febs Letters, 2008)

Experiments:
[1] = biological target: human cathepsin L (human); assay: enzyme inhibition kinetics (Ki for tight-binding inhibitors); peptidase incubated with different chagasin concentrations for 15 min at room temperature, residual hydrolysis of 5 μM Z-Phe-Arg-MCA; Ki from Kiapp with KM 1.5, 2.5 and 60 μM for cruzipain, cathepsin L and papain; methods: RB buffer (50 mM Na2PO4, pH 6.5, 200 mM NaCl, 5 mM EDTA, 2.5 mM DTT), 25 °C; footnote of Table 2: 50 mM Na2HPO4, 100 mM NaCl, 5 mM EDTA, pH 6.5, 5% DMSO, 2.5 mM DTT, 28 °C
cruzipain = biological target: T1, cruzipain (Trypanosoma cruzi, UniProt P25779 123-467); assay: enzyme inhibition kinetics (Ki for tight-binding inhibitors); peptidase incubated with different chagasin concentrations for 15 min at room temperature, residual hydrolysis of 5 μM Z-Phe-Arg-MCA; Ki from Kiapp with KM 1.5, 2.5 and 60 μM for cruzipain, cathepsin L and papain; methods: RB buffer (50 mM Na2PO4, pH 6.5, 200 mM NaCl, 5 mM EDTA, 2.5 mM DTT), 25 °C; footnote of Table 2: 50 mM Na2HPO4, 100 mM NaCl, 5 mM …; details: both partners purified
T1 construct: also called T. cruzi CP cruzipain; major cysteine peptidase of T. cruzi

papain = biological target: T2, papain (UniProt P00784 134-345); assay: as above; details: both partners purified
T2 construct: source: bought: Sigma
T2 sequence (looked up): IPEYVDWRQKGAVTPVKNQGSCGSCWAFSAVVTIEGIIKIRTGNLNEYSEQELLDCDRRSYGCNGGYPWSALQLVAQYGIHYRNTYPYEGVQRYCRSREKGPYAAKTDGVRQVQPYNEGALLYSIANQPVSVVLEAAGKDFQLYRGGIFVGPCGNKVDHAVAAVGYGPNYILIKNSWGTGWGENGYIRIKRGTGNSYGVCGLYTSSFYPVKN

Molecule “chagasin T31S (from UniProt Q966X9 1-110) (natural protein)” has a Ki [1] of 0.0049 nM.

For “chagasin T31V (from UniProt Q966X9 1-110) (natural protein)”, the Ki [1] was 0.0097 nM.

Molecule “chagasin T32A (from UniProt Q966X9 1-110) (natural protein)” has a Ki [1] of 0.014 nM.

Work on “chagasin T31A/T32A double mutant (from UniProt Q966X9 1-110) (natural protein)” yielded a Ki [1] of 0.0018 nM.

“chagasin T32Y (from UniProt Q966X9 1-110) (natural protein)” gave a Ki [1] of 0.0027 nM.

“chagasin P30A (from UniProt Q966X9 1-110) (natural protein)” was tested, and the Ki [1] was 0.045 nM.

In the case of “chagasin T32S (from UniProt Q966X9 1-110) (natural protein)”, the Ki [1] is reported as 0.032 nM.

Work on “chagasin T31A (from UniProt Q966X9 1-110) (natural protein)” yielded a Ki [1] of 0.0039 nM.

In the case of “chagasin W93A (from UniProt Q966X9 1-110) (natural protein)”, the Ki [1] is reported as 0.825 nM.

Molecule “chagasin T31Y (from UniProt Q966X9 1-110) (natural protein)” has a Ki [1] of 0.0068 nM.

Work on “chagasin T32V (from UniProt Q966X9 1-110) (natural protein)” yielded a Ki [1] of 0.02 nM.

For “chagasin ΔT31–T32 (devoid of residues T31 and T32) (from UniProt Q966X9 1-110) (natural protein)”, the Ki [1] was 2.2 nM.

B1: chagasin ΔT31–T32 (devoid of residues T31 and T32) (natural protein)
chain: MSHKVTKAHNGATLTVAVGELVEIQLPSNPGFAWYFEGGTKESPNESMFTVENKYFPPDSKLLGAGGTEHFHVTVKAAGTHAVNLTYMRPWTGPSHDSERFTVYLKAN
notes: source: E. coli M15/pRep4, purified (Ni metal chelate column, HQ ion exchange)
Work on B1 yielded a Ki (cruzipain) of 5.87 nM.

B2: chagasin (recombinant His-tagged wild type) (natural protein)
chain: MSHKVTKAHNGATLTVAVGELVEIQLPSNPTTGFAWYFEGGTKESPNESMFTVENKYFPPDSKLLGAGGTEHFHVTVKAAGTHAVNLTYMRPWTGPSHDSERFTVYLKAN
notes: also called WT; wild type chagasin; source: E. coli M15/pRep4, purified (Ni metal chelate column, HQ ion exchange)
For B2, the Ki [1] was 0.0073 nM, the Ki (cruzipain) was 0.0076 nM and the Ki (papain) was 0.005 ± 0.0007 nM.

B3: chagasin W93A (natural protein)
chain: MSHKVTKAHNGATLTVAVGELVEIQLPSNPTTGFAWYFEGGTKESPNESMFTVENKYFPPDSKLLGAGGTEHFHVTVKAAGTHAVNLTYMRPATGPSHDSERFTVYLKAN
notes: pQE30 construct as m1; also called pGL1199; source: E. coli M15/pRep4, purified (Ni metal chelate column, HQ ion exchange)
In the case of B3, the Ki (cruzipain) is reported as 0.031 nM.

B4: chagasin Y89F (natural protein)
chain: MSHKVTKAHNGATLTVAVGELVEIQLPSNPTTGFAWYFEGGTKESPNESMFTVENKYFPPDSKLLGAGGTEHFHVTVKAAGTHAVNLTFMRPWTGPSHDSERFTVYLKAN
notes: pQE30 construct as m1; also called pGL1119; source: E. coli M15/pRep4, purified (Ni metal chelate column, HQ ion exchange)
B4 was tested, and the Ki (cruzipain) was 0.02 nM and the binding result (papain) was “binds”.

B5: chagasin T31V (natural protein)
chain: MSHKVTKAHNGATLTVAVGELVEIQLPSNPVTGFAWYFEGGTKESPNESMFTVENKYFPPDSKLLGAGGTEHFHVTVKAAGTHAVNLTYMRPWTGPSHDSERFTVYLKAN
notes: pQE30 construct as m1; also called pGL1298; source: E. coli M15/pRep4, purified (Ni metal chelate column, HQ ion exchange)
With B5 the Ki (cruzipain) was 0.07 nM.

B6: chagasin T32V (natural protein)
chain: MSHKVTKAHNGATLTVAVGELVEIQLPSNPTVGFAWYFEGGTKESPNESMFTVENKYFPPDSKLLGAGGTEHFHVTVKAAGTHAVNLTYMRPWTGPSHDSERFTVYLKAN
notes: pQE30 construct as m1; also called pGL1196; source: E. coli M15/pRep4, purified (Ni metal chelate column, HQ ion exchange)
Work on B6 yielded a Ki (cruzipain) of 0.193 nM.

B7: chagasin T32E (natural protein)
chain: MSHKVTKAHNGATLTVAVGELVEIQLPSNPTEGFAWYFEGGTKESPNESMFTVENKYFPPDSKLLGAGGTEHFHVTVKAAGTHAVNLTYMRPWTGPSHDSERFTVYLKAN
notes: pQE30 construct as m1; also called pGL1197; source: E. coli M15/pRep4, purified (Ni metal chelate column, HQ ion exchange)
B7 was tested, and the Ki (cruzipain) was 0.011 nM.

B8: chagasin T32S (natural protein)
chain: MSHKVTKAHNGATLTVAVGELVEIQLPSNPTSGFAWYFEGGTKESPNESMFTVENKYFPPDSKLLGAGGTEHFHVTVKAAGTHAVNLTYMRPWTGPSHDSERFTVYLKAN
notes: pQE30 construct as m1; also called pGL1195; source: E. coli M15/pRep4, purified (Ni metal chelate column, HQ ion exchange)
B8 showed a Ki (cruzipain) of 0.02 nM.

B9: chagasin T31A/T32A double mutant (natural protein)
chain: MSHKVTKAHNGATLTVAVGELVEIQLPSNPAAGFAWYFEGGTKESPNESMFTVENKYFPPDSKLLGAGGTEHFHVTVKAAGTHAVNLTYMRPWTGPSHDSERFTVYLKAN
notes: pQE30 construct as m1; also called pGL1258; source: E. coli M15/pRep4, purified (Ni metal chelate column, HQ ion exchange)
In the case of B9, the Ki (cruzipain) is reported as 1.06 nM and the Ki (papain) is reported as 0.027 ± 0.0015 nM.

B10: chagasin P30A (natural protein)
chain: MSHKVTKAHNGATLTVAVGELVEIQLPSNATTGFAWYFEGGTKESPNESMFTVENKYFPPDSKLLGAGGTEHFHVTVKAAGTHAVNLTYMRPWTGPSHDSERFTVYLKAN
notes: pQE30 construct as m1; also called pGL1194; source: E. coli M15/pRep4, purified (Ni metal chelate column, HQ ion exchange)
Work on B10 yielded a Ki (cruzipain) of 0.02 nM.

B11: chagasin T32A (natural protein)
chain: MSHKVTKAHNGATLTVAVGELVEIQLPSNPTAGFAWYFEGGTKESPNESMFTVENKYFPPDSKLLGAGGTEHFHVTVKAAGTHAVNLTYMRPWTGPSHDSERFTVYLKAN
notes: pQE30 construct as m1; also called pGL1211; source: E. coli M15/pRep4, purified (Ni metal chelate column, HQ ion exchange)
B11 gave a Ki (cruzipain) of 0.016 nM.

B12: chagasin Y89S (natural protein)
chain: MSHKVTKAHNGATLTVAVGELVEIQLPSNPTTGFAWYFEGGTKESPNESMFTVENKYFPPDSKLLGAGGTEHFHVTVKAAGTHAVNLTSMRPWTGPSHDSERFTVYLKAN
notes: pQE30 construct as m1; also called pGL1120; source: E. coli M15/pRep4, purified (Ni metal chelate column, HQ ion exchange)
B12 showed a Ki (cruzipain) of 0.025 nM and a Ki (papain) of 0.316 ± 0.017 nM.

B13: chagasin T32Y (natural protein)
chain: MSHKVTKAHNGATLTVAVGELVEIQLPSNPTYGFAWYFEGGTKESPNESMFTVENKYFPPDSKLLGAGGTEHFHVTVKAAGTHAVNLTYMRPWTGPSHDSERFTVYLKAN
notes: pQE30 construct as m1; also called pGL1198; source: E. coli M15/pRep4, purified (Ni metal chelate column, HQ ion exchange)
B13 gave a Ki (cruzipain) of 0.016 nM.

B14: chagasin T31A (natural protein)
chain: MSHKVTKAHNGATLTVAVGELVEIQLPSNPATGFAWYFEGGTKESPNESMFTVENKYFPPDSKLLGAGGTEHFHVTVKAAGTHAVNLTYMRPWTGPSHDSERFTVYLKAN
notes: pQE30 construct as m1; also called pGL1209; source: E. coli M15/pRep4, purified (Ni metal chelate column, HQ ion exchange)
B14 gave a Ki (cruzipain) of 0.317 nM.

B15: chagasin T31S (natural protein)
chain: MSHKVTKAHNGATLTVAVGELVEIQLPSNPSTGFAWYFEGGTKESPNESMFTVENKYFPPDSKLLGAGGTEHFHVTVKAAGTHAVNLTYMRPWTGPSHDSERFTVYLKAN
notes: pQE30 construct as m1; also called pGL1299; source: E. coli M15/pRep4, purified (Ni metal chelate column, HQ ion exchange)
Molecule B15 has a Ki (cruzipain) of 0.011 nM.

B16: chagasin T31Y (natural protein)
chain: MSHKVTKAHNGATLTVAVGELVEIQLPSNPYTGFAWYFEGGTKESPNESMFTVENKYFPPDSKLLGAGGTEHFHVTVKAAGTHAVNLTYMRPWTGPSHDSERFTVYLKAN
notes: pQE30 construct as m1; also called pGL1210; source: E. coli M15/pRep4, purified (Ni metal chelate column, HQ ion exchange)
B16 showed a Ki (cruzipain) of 0.747 nM.
